Reference: the Human Domainome abundance scans (Beltran et al. 2025)

B1: Androgen receptor, residues 557 to 632; numbered along this chain, P10275 (parent)
chain: QKTCLICGDEASGCHYGALTCGSCKVFFKRAAEGKQKYLCASRNDCTIDKFRRKNCPSCRLRKCYEAGMTLGARKL

Variants of: B1
Assay: abundance fitness (aPCA) (normalised: wild type 0, dead -1); higher = more abundant; growth selection in yeast, the domain comes from the species named
Settings: Homo sapiens

Abundance fitness, by site and new letter:
I48: F -0.226, W -0.37, M -0.154, C -0.585, S -0.251, D -0.331, E -0.348, Q -0.203, P -0.25, G -0.362, L -0.204, V -0.02, H -0.482, N -0.199, Y -0.177
E33: W -0.25, F -0.343, H -0.153, M 0.014, D -0.066, L -0.173, V -0.089, K 0.013, C 0.072, G 0.044, T -0.058, I 0.03, R -0.042, Y -0.187, A -0.121, Q 0.023, P -0.135
D45: L -0.177, S -0.275, C -0.325, W -0.465, E -0.037, P -0.221, T -0.091, K 0.101, Y -0.176, I -0.07, A -0.094, G -0.162, F -0.498, V -0.12, M -0.206, Q 0.176, N 0.009
D49: N -0.188, R -0.342, C -0.538, V -0.512, W -0.402, G -0.197, E -0.066, T -0.165, K -0.317, H -0.382, F -0.613, Y -0.634, L -0.502, M -0.448, S -0.139, P -0.482, I -0.283, A -0.283
R52: D 0.047, H -0.076, F -0.164, N -0.072, Q -0.063, P 0.004, S -0.087, T 0.067, I -0.042, A -0.157, G -0.001, K -0.033, L -0.044, E -0.003, C -0.087, M -0.067
C40: R -0.798, Q -0.482, D -1.14, G -0.891, I -0.948, P -0.756, E -0.576, T -0.554, V -0.693, Y -1.13, K -0.632, W -1.16, S -0.713
A32: F -0.197, P -0.591, Q 0.034, G -0.001, M -0.019, V -0.016, S -0.052, I -0.011, C -0.023, H -0.233, E 0.036, W -0.088, R -0.155, Y -0.145, L -0.167, D 0.007, T 0.114
K35: A -0.093, H -0.044, C -0.007, P 0.074, R 0.004, T 0.039, M 0.018, N -0.093, I -0.09, D -0.118, L -0.135, W -0.213, Y -0.034, Q 0.007, E 0.084, S -0.031, G -0.031
C46: T -0.713, I -0.784, F -0.912, A -0.904, H -0.38, E -0.542, K -0.735, S -0.843, W -0.878, P -0.926, V -0.942, D -0.495, R -0.892, M -0.914, Y -1.06, Q -0.8, N -0.711
G34: D -0.372
L39: C -0.069, M 0.047, Y 0.045, H -0.033, P -0.086, Q 0.011, N -0.008, W -0.064, K 0.094, V 0.029, R -0.006, T -0.032, E 0.054, G -0.009, D -0.068, S -0.128
A31: N -0.144, R -0.486, L -0.225, Y 0.086, D -0.503, K -0.627, Q -0.075, E -0.093, G -0.086, C -0.072, F -0.214, V -0.128, I -0.387, T 0.025, S -0.024, H -0.102, P -0.519, M -0.182
K37: N 0.073, A 0.038, I -0.091, F -0.331, C -0.185, H 0.168, G -0.08, D -0.009, R -0.054, T 0.01, S -0.086, L -0.126, P 0.006, V -0.058, Y -0.178, W -0.168, Q 0.079, M -0.131
N44: D -0.002, K -0.177, F -0.158, A -0.064, C -0.419, E -0.031, T -0.159, S -0.076, L -0.251, H -0.229, W -0.344, M -0.083, Y -0.274, R -0.258, I -0.433, V -0.343, G 0.026
Q36: I -0.197, W -0.251, H -0.01, F -0.156, M -0.084, R -0.144, D 0.048, E 0.031, V 0.065, C -0.2, P -0.006, Y -0.189, L -0.075, N -0.134, S -0.094, G 0.011, K 0.013, A -0.019, T -0.173
Y38: M -0.036, N -0.245, Q -0.072, V -0.092, L -0.046, H -0.231, R -0.239, P -0.007, G -0.222, T -0.179, I 0.111, E -0.064, A -0.057, D -0.059, S -0.116, W -0.239, C -0.305, F -0.097, K -0.085
A41: I -0.275, P -0.12, Y 0.044, K -0.368, F -0.113, D 0.041, S -0.041, H -0.279, T -0.056, V 0.01, L -0.047, E -0.079, R -0.051, G -0.091, W -0.187, N -0.165, M -0.186, C -0.18, Q -0.081
T47: H -0.026, N -0.067, M -0.086, C -0.077, L -0.041, E -0.059, W -0.244, G -0.079, F -0.077, I -0.03, S -0.015, P 0.007, Q -0.075, R -0.108, Y -0.071, D -0.017
R30: I -0.067, D -0.066, Y -0.191, E 0.019, A -0.094, H 0.114, Q -0.029, K 0.103, W -0.114, N 0.014, L 0.099, S -0.016, V -0.066, T 0.01, F 0.03, P -0.395
K29: Y -0.148, M -0.245, S -0.248, W 0.035, R -0.075, N -0.123, V -0.215, Q -0.169, L -0.331, P -0.377
K50: P -0.007, T -0.068, W -0.227, H -0.087, L -0.027, D -0.403, Y -0.124, G -0.146, C -0.103, M -0.195, E -0.124, S -0.13, Q -0.075, V -0.063, R -0.068, I -0.26, F -0.277, N 0.087
